Experimental data as given in patent US20240360195A1 (HELMHOLTZ ZENTRUM M NCHEN DEUTSCHES FORSCHUNGSZENTRUM F R …, published 2024).

Target: T1, human carbonic anhydrase XII (CA12) on A549 lung cancer cells (human, UniProt O43570 25-354)
T1 construct: whole, on cells; No recombinant protein was used; also called CA-XII; CA XII
Assay: flow cytometry on A549 cells, serial dilution, Cy5-labeled donkey anti-human IgG secondary, pH 7.4
Description: 50.000 A549 cells were incubated with a serial dilution of Monomers or Dimers (6A10). After washing, cells were incubated with a Cy5-labeled secondary antibody (donkey anti-human IgG light and heavy chain). Binding of the secondary antibody was analyzed with a BD FACSCanto and the DIVA software. RU=relative light units.
After washing, cells were incubated with a Cy5-labeled secondary antibody (donkey anti-human IgG light and heavy chain). Binding of the secondary antibody was analyzed with a BD FACSCanto and the DIVA software. RU=relative light units.
CA12-positive A549 cells were incubated with different amounts of Fab6A10 dimers or Fab6A 10 monomers at the indicated pH, followed by an incubation of a suitable Cy5-labeled secondary antibody at neutral pH (approx. 7.2).

T1 sequence (O43570 25-354): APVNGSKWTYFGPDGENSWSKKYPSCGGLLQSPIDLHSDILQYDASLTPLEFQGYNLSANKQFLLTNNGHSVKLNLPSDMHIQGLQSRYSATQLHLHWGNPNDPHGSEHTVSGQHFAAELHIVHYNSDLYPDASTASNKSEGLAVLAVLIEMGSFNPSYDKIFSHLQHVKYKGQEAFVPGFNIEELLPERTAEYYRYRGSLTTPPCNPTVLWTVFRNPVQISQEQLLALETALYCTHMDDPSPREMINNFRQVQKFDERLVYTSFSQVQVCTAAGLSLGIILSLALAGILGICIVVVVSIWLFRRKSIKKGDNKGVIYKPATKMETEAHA

binding result: binds
B1: Fab6A10 dimer (other)
heavy: QVQLKESGPGLVQPSETLSLTCTVSGFSLTTYSVSWVRQPSGKGPEWMGRMWYDGDTVYNSALKSRLSISRDTSKNQVFLKMNSLETDETGTYYCTRDFGYFDGSSPFDYWGQGVMVTVSSASTKGPSVFPLAPSSKSTSGGTAALGCLVKDYFPEPVTVSWNSGALTSGVHTFPAVLQSSGLYSLSSVVTVPSSSLGTQTYICNVNHKPSNTKVDKKVEPKSCDKTHT
light: RCPVDIVLTQSPATLSVTPGESVSLSCRASQGISTSIHWYQQKSNESPRLLIKFASQSISGIPSRFSGSGSGTDFTLSINRVESEDFSVYFCQQTYSLPYTFGAGTKLELKRTVAAPSVFIFPPSDEQLKSGTASVVCLLNNFYPREAKVQWKVDNALQSGNSQESVTEQDSKDSTYSLSSTLTLSKADYEKHKVYACEVTHQGLSSPVTKSFNRGEC
modifications: additional non-naturally occurring cysteine at the N-terminus of the VL region (N-terminus RCPVDIVLTQ..., SEQ ID NO: 18) forms a disulfide bond with the same cysteine of the second Fab monomer
notes: also called 6A10 Fab dimers; 6A10Fab dimers
